Article doi:10.1101/797027 (bioRxiv, 2019)

T1: hRpn10^305–377 (RAZUL, Rpn10 AZUL binding domain) (human, UniProt P55036 305-377)
T1 sequence (looked up): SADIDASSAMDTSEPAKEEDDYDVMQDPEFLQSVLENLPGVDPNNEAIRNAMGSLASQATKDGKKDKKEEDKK

T2: GST-hRpn10^305–377 (human, UniProt P55036 305-377)
T2 sequence (looked up): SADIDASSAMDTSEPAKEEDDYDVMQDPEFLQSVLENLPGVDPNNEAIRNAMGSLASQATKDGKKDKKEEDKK


Tests used:
ubiquitin = ubiquitin (UniProt P0CG48 1-76); assay: NMR titration
[1] = target: T1, hRpn10^305–377 (RAZUL, Rpn10 AZUL …); assay: ITC
GST-hRpn10^305–377 = target: T2, GST-hRpn10^305–377; assay: SPR

Row | Binder | binding result (ubiquitin) | Kd [1] [nM] | Kd (GST-hRpn10^305–377) [nM]
1 | His-hRpn10^196–377 (domain or fragment) MLGLGASDFEFGVDPSADPELALALRVSMEEQRQRQEEEARRAAAASAAEAGIATTGTEDSDDALLKMTISQQEFGRTGLPDLSSMTEEEQIAYAMQMSLQGAEFGQAESADIDASSAMDTSEPAKEEDDYDVMQDPEFLQSVLENLPGVDPNNEAIRNAMGSLASQATKDGKKDKKEEDKK | binds | – | –
2 | E6AP AZUL domain, E6AP[24–87] (domain or fragment, human, UniProt Q05086 24-87, looked up) MKRAAAKHLIERYYHQLTEGCGNEACTNEFCASCPTFLRMDNNAAAIKALELYKINAKLCDPHP | – | 11.6 | 8.1
